Data published in the supplement of paper PMC9112550, “Optimization of the antimicrobial peptide Bac7 by deep mutational scanning” (BMC Biology, 2022).

System: Escherichia coli TOP10
Experiment: shrunken log2 fold change of peptide-encoding DNA abundance (4.5 h post-induction vs induction); higher = less antimicrobial activity (less host growth inhibition)
Settings: time post-induction: 4.5 h; library: site-saturation at positions 5, 18, 19, 20
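Further: peptides expressed intracellularly from a pBAD plasmid library in pooled LB shake-flask culture, induced with 0.3% L-arabinose, DNA abundance read by NGS, three biological replicates, DESeq2 with apeglm shrinkage.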

Point of comparison: RRIRVRPPRLPRPRPRPAVPPRP, “shrunken log2 fold change” value 0.0151. Against it:
- RRIRNRPPRLPRPRPRPMERPRP — within 0.2 log units, 0.019
- RRIRLRPPRLPRPRPRPCEFPRP — within 0.2 log units, -0.032
- RRIRHRPPRLPRPRPRPSWMPRP — lower, -0.419
- RRIRRRPPRLPRPRPRPVNDPRP — higher, 0.52
- RRIRYRPPRLPRPRPRPGYMPRP — lower, -0.716
- RRIRWRPPRLPRPRPRPYIIPRP — lower, -1.11
- RRIRSRPPRLPRPRPRPQNDPRP — within 0.2 log units, -0.13
- RRIRVRPPRLPRPRPRPVGIPRP — within 0.2 log units, -0.0251
- RRIRIRPPRLPRPRPRPDSKPRP — lower, -0.325
- RRIRSRPPRLPRPRPRPVEKPRP — within 0.2 log units, -0.0804
- RRIRFRPPRLPRPRPRPGVHPRP — within 0.2 log units, -0.0827
- RRIRWRPPRLPRPRPRPCKVPRP — within 0.2 log units, -0.0816
- RRIRYRPPRLPRPRPRPNSPPRP — lower, -0.21
- RRIRERPPRLPRPRPRPTMCPRP — higher, 0.292
- RRIRIRPPRLPRPRPRPDAPPRP — within 0.2 log units, 0.14
- RRIRDRPPRLPRPRPRPNFVPRP — within 0.2 log units, -0.0655
- RRIRFRPPRLPRPRPRPMIAPRP — lower, -0.195
- RRIRARPPRLPRPRPRPFYMPRP — lower, -0.45
- RRIRLRPPRLPRPRPRPKWQPRP — within 0.2 log units, -0.0304
- RRIRFRPPRLPRPRPRPPQKPRP — higher, 0.719
- RRIRLRPPRLPRPRPRPHNTPRP — lower, -0.61
- RRIRNRPPRLPRPRPRPESDPRP — higher, 0.648
- RRIRWRPPRLPRPRPRPNYMPRP — lower, -0.385
- RRIRERPPRLPRPRPRPPDHPRP — within 0.2 log units, -0.0455
- RRIRSRPPRLPRPRPRPTDQPRP — within 0.2 log units, 0.16
- RRIRQRPPRLPRPRPRPMVDPRP — within 0.2 log units, -0.00399
- RRIRMRPPRLPRPRPRPCESPRP — within 0.2 log units, -0.0088
- RRIRQRPPRLPRPRPRPVSRPRP — within 0.2 log units, -0.00586
- RRIRNRPPRLPRPRPRPQPDPRP — within 0.2 log units, -0.0718
- RRIRPRPPRLPRPRPRPRSDPRP — within 0.2 log units, 0.179
- RRIRSRPPRLPRPRPRPFFTPRP — within 0.2 log units, -0.00429
- RRIRWRPPRLPRPRPRPEVGPRP — higher, 1.38
- RRIRPRPPRLPRPRPRPCRIPRP — within 0.2 log units, -0.00277
- RRIRDRPPRLPRPRPRPRRFPRP — within 0.2 log units, 0.212
- RRIRHRPPRLPRPRPRPANWPRP — within 0.2 log units, 0.135
- RRIRERPPRLPRPRPRPRCRPRP — within 0.2 log units, 0.113
- RRIRVRPPRLPRPRPRPLAEPRP — higher, 0.433
- RRIRVRPPRLPRPRPRPGHWPRP — within 0.2 log units, 0.164
- RRIRNRPPRLPRPRPRPNMTPRP — lower, -0.345
- RRIRHRPPRLPRPRPRPTVYPRP — lower, -0.219
- RRIRVRPPRLPRPRPRPTTYPRP — lower, -0.465
- RRIRNRPPRLPRPRPRPTRCPRP — within 0.2 log units, 0.15
- RRIRGRPPRLPRPRPRPQFWPRP — higher, 0.553
- RRIRTRPPRLPRPRPRPSSIPRP — lower, -0.233
- RRIRIRPPRLPRPRPRPQYQPRP — lower, -0.769
- RRIRKRPPRLPRPRPRPTGLPRP — higher, 0.223
- RRIRRRPPRLPRPRPRPFEFPRP — within 0.2 log units, 0.117
- RRIRARPPRLPRPRPRPSDCPRP — within 0.2 log units, -0.164
- RRIRTRPPRLPRPRPRPCETPRP — within 0.2 log units, 0.0184
- RRIRFRPPRLPRPRPRPNNFPRP — lower, -0.383
- RRIRYRPPRLPRPRPRPAAFPRP — lower, -0.757
- RRIRFRPPRLPRPRPRPMMWPRP — within 0.2 log units, -0.011
- RRIRQRPPRLPRPRPRPVREPRP — within 0.2 log units, -0.00762
- RRIRTRPPRLPRPRPRPVHDPRP — within 0.2 log units, -0.0747
- RRIRFRPPRLPRPRPRPGPTPRP — higher, 0.404
- RRIRPRPPRLPRPRPRPTDLPRP — within 0.2 log units, -0.0166
- RRIRHRPPRLPRPRPRPPGCPRP — within 0.2 log units, 0.184
- RRIRHRPPRLPRPRPRPMPGPRP — within 0.2 log units, -0.0235
- RRIRSRPPRLPRPRPRPFAGPRP — within 0.2 log units, -0.00284
- RRIRTRPPRLPRPRPRPIQPPRP — within 0.2 log units, 0.00206
- RRIRARPPRLPRPRPRPPGRPRP — higher, 0.742
- RRIRMRPPRLPRPRPRPFMNPRP — lower, -0.196
- RRIRQRPPRLPRPRPRPPMEPRP — lower, -0.22
- RRIRLRPPRLPRPRPRPRYPPRP — higher, 0.318
- RRIRKRPPRLPRPRPRPSPQPRP — higher, 0.219
- RRIRWRPPRLPRPRPRPEQMPRP — higher, 0.222
- RRIRDRPPRLPRPRPRPWYNPRP — within 0.2 log units, -0.102
- RRIRERPPRLPRPRPRPSASPRP — within 0.2 log units, -0.13
- RRIRERPPRLPRPRPRPTSSPRP — lower, -0.303
- RRIRYRPPRLPRPRPRPHPSPRP — within 0.2 log units, 0.0761
- RRIRIRPPRLPRPRPRPGEPPRP — within 0.2 log units, -0.0228
- RRIRERPPRLPRPRPRPQTCPRP — within 0.2 log units, -0.0436
- RRIRQRPPRLPRPRPRPMPYPRP — within 0.2 log units, -0.0574
- RRIRSRPPRLPRPRPRPNVAPRP — within 0.2 log units, -0.0788
- RRIRHRPPRLPRPRPRPTSQPRP — within 0.2 log units, -0.00232
- RRIRIRPPRLPRPRPRPIPRPRP — within 0.2 log units, 0.0123
- RRIRDRPPRLPRPRPRPAPFPRP — within 0.2 log units, 0.196
- RRIRDRPPRLPRPRPRPEQGPRP — within 0.2 log units, 0.0995
- RRIRRRPPRLPRPRPRPPTYPRP — within 0.2 log units, 0.0139
- RRIRERPPRLPRPRPRPYDSPRP — within 0.2 log units, -0.0594
- RRIRARPPRLPRPRPRPRHHPRP — within 0.2 log units, 0.0585
- RRIRMRPPRLPRPRPRPMKGPRP — higher, 0.235
- RRIRNRPPRLPRPRPRPHINPRP — lower, -1.02
- RRIRHRPPRLPRPRPRPWIIPRP — within 0.2 log units, 0.00956
- RRIRTRPPRLPRPRPRPIIGPRP — within 0.2 log units, 0.0211
- RRIRTRPPRLPRPRPRPYLDPRP — lower, -0.381
- RRIRPRPPRLPRPRPRPNRQPRP — within 0.2 log units, -0.0342
- RRIRDRPPRLPRPRPRPRDIPRP — within 0.2 log units, 0.0838
- RRIRRRPPRLPRPRPRPIQPPRP — within 0.2 log units, -0.0245
- RRIRIRPPRLPRPRPRPFWGPRP — within 0.2 log units, -0.139
- RRIRHRPPRLPRPRPRPEDEPRP — within 0.2 log units, 0.0969
- RRIRVRPPRLPRPRPRPRYCPRP — within 0.2 log units, -0.144
- RRIRARPPRLPRPRPRPPSSPRP — higher, 0.342
- RRIRMRPPRLPRPRPRPFIGPRP — within 0.2 log units, -0.0122
- RRIRYRPPRLPRPRPRPEWFPRP — within 0.2 log units, -0.0405
- RRIRGRPPRLPRPRPRPLRKPRP — higher, 1.12
- RRIRFRPPRLPRPRPRPWLLPRP — lower, -0.343
- RRIRYRPPRLPRPRPRPMCAPRP — lower, -0.208
- RRIRHRPPRLPRPRPRPHTCPRP — within 0.2 log units, -0.141
- RRIRGRPPRLPRPRPRPHVGPRP — within 0.2 log units, 0.0375
- RRIRNRPPRLPRPRPRPYASPRP — lower, -0.397
- RRIRMRPPRLPRPRPRPCWLPRP — within 0.2 log units, -0.0281
- RRIRVRPPRLPRPRPRPVVNPRP — within 0.2 log units, -0.0959
- RRIRMRPPRLPRPRPRPQICPRP — within 0.2 log units, 0.058
- RRIRYRPPRLPRPRPRPYELPRP — within 0.2 log units, -0.0164
- RRIRFRPPRLPRPRPRPNHPPRP — lower, -0.84
- RRIRKRPPRLPRPRPRPVWPPRP — higher, 0.699
- RRIRIRPPRLPRPRPRPVNAPRP — within 0.2 log units, -0.113
